According to the supplement of paper PMC7877785:
± gives the uncertainty stated by the source.

Assay: self-splicing fitness, log relative to wild type (ln ratio); higher = more splicing; Tetrahymena group I intron in knt gene, E. coli kanamycin selection, DiMSum; sequences stand for … in CUCUCU…GGAGGGAAAAGUUAUCAGGCAUGCACCUGGUAGCUAGUCUUUAAACCAAUAGAUUGCAUCGGUUUAAAAGGCAAGACCGUCAAAUUGCGGGAAAGGGGUCAACAGCCGUUCAGUACCAAGUCUCAGGGGAAACUUUGAGAUGGCCUUGCAAAGGGUAUGGUAAUAAGCUGACGGACAUGGUCCUAACCACGCAGCCAAGUCCUAAGUCAACAGAUCUUCUGUUGAUAUGGAUGCAGUUCACAGACUAAAUGUCGGUCGGGGAAGAUGUAUUCUUCUCAUAAGAUAUAGUCGGACCUCUCCUUAAUGGGAGCUAGCGGAUGAAGUGAUGCAACACUGGAGCCGCUGGGAACUAAUUUGUAUGCGAAAGUAUAUUGAUUAGUUUUGGAGUACUCGUGGUCG
Method in brief: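 A randomised library covering all eight P1ex-region intron nucleotides was built with the intron in the knt kanamycin-resistance gene on pET-22b(+) and held in E. coli BL21(DE3). Cells were grown overnight at 37°C or 30°C on LB agar, with or without 25 μg/mL kanamycin, plus 100 μg/mL carbenicillin, 50 μM IPTG and 0.2% rhamnose, and pooled colonies were amplicon-sequenced on an Illumina HiSeq 2500. DiMSum fitness is the error-weighted combination of wild-type-normalised replicate fold changes, kanamycin versus none.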

Row | Sequence | self-splicing fitness (ln) (30 °C) | self-splicing fitness (ln) (37 °C)
1 | CCCUAGCAAUAUUACGCAUA | -3.33 ± 0.27 | -1.99 ± 0.2
2 | CCCUAGCAAUAUUACGCAUC | -3.26 ± 0.25 | -2 ± 0.2
3 | CCCUAGCAAUAUUACGCCAA | -3.03 ± 0.25 | -2.74 ± 0.41
4 | CCCUAGCAAUAUUACGCCAG | -3.87 ± 0.32 | -3.21 ± 0.37
5 | CCCUAGCAAUAUUACGCCUA |  | -2.48 ± 0.34
6 | CCCUAGCAAUAUUACGCCUC | -3.29 ± 0.27 | -3.81 ± 0.31
7 | CCCUAGCAAUAUUACGCCUU | -3.23 ± 0.16 | -3.08 ± 0.4
8 | CCCUAGCAAUAUUACGCGGC | -1.47 ± 0.21 | -2.36 ± 0.41
9 | CCCUAGCAAUAUUACGCGUG | -5.09 ± 0.41 | -1.06 ± 0.13
10 | CCCUAGCAAUAUUACGCUAG | -4.18 ± 0.34 | -2.47 ± 0.28
11 | CCCUAGCAAUAUUACGCUGU | -4.59 ± 0.31 | -2.63 ± 0.21
12 | CCCUAGCAAUAUUACGCUUG | -3.94 ± 0.42 | -2.18 ± 0.28
13 | CCCUAGCAAUAUUACGGAAA | -3.33 ± 0.27 | -1.5 ± 0.24
14 | CCCUAGCAAUAUUACGGACG | -2.32 ± 0.097 | -1.15 ± 0.11
15 | CCCUAGCAAUAUUACGGAUG | -3.17 ± 0.15 | -1.53 ± 0.11
16 | CCCUAGCAAUAUUACGGCUU | -3.76 ± 0.18 | -2.26 ± 0.18
17 | CCCUAGCAAUAUUACGGGAG | -3.67 ± 0.18 | -1.79 ± 0.14
18 | CCCUAGCAAUAUUACGGUCA | -2.57 ± 0.18 | -2.65 ± 0.28
19 | CCCUAGCAAUAUUACGGUGU | -3.05 ± 0.098 | -2.19 ± 0.11
20 | CCCUAGCAAUAUUACGUAAU | -3.5 ± 0.22 | -2.83 ± 0.25
21 | CCCUAGCAAUAUUACGUCGC | -3.12 ± 0.21 | -2.64 ± 0.25
22 | CCCUAGCAAUAUUACGUCUA | -2.5 ± 0.19 | -2.12 ± 0.2
23 | CCCUAGCAAUAUUACGUGAC | -2.85 ± 0.15 | -2.29 ± 0.34
24 | CCCUAGCAAUAUUACGUGCG | -2.36 ± 0.13 | -2.97 ± 0.17

Row | Sequence | self-splicing fitness (ln) (30 °C) | self-splicing fitness (ln) (37 °C)
25 | CCCUAGCAAUAUUACGUUGG | -3.97 ± 0.23 | -2.48 ± 0.2
26 | CCCUAGCAAUAUUACGUUUG | -3.93 ± 0.16 | -2.79 ± 0.18
27 | CCGAAGCAAUAUUACGACUG | -1.06 ± 0.12 | 0.835 ± 0.17
28 | CCGAAGCAAUAUUACGAGAG | -3.28 ± 0.22 | -1.53 ± 0.19
29 | CCGAAGCAAUAUUACGCAAA |  | -2.17 ± 0.38
30 | CCGAAGCAAUAUUACGCCCC | -1.26 ± 0.24 | -2.89 ± 0.47
31 | CCGAAGCAAUAUUACGCCUC | -1.84 ± 0.28 | 
32 | CCGAAGCAAUAUUACGGACG | -0.955 ± 0.11 | 0.515 ± 0.12
33 | CCGAAGCAAUAUUACGGACU | -2.33 ± 0.32 | -2.2 ± 0.34
34 | CCGAAGCAAUAUUACGGGGC | -3.54 ± 0.24 | -1.64 ± 0.24
35 | CCGAAGCAAUAUUACGUAAA | -3.14 ± 0.22 | -2.12 ± 0.33
36 | CCGAAGCAAUAUUACGUCAG | -1.47 ± 0.071 | -0.198 ± 0.11
37 | CCGAAGCAAUAUUACGUCUU | -3.58 ± 0.15 | -2.98 ± 0.21
38 | CCGAAGCAAUAUUACGUGGA | -3.71 ± 0.29 | -2.47 ± 0.17
39 | CCGAAGCAAUAUUACGUGGU | -4.68 ± 0.29 | -2.24 ± 0.2
40 | CCGAAGCAAUAUUACGUGUG | -2.19 ± 0.059 | -0.959 ± 0.062
41 | CCGAAGCAAUAUUACGUUCG | -3.33 ± 0.13 | -1.26 ± 0.11
42 | CCGCAGCAAUAUUACGAAGG | -3.52 ± 0.18 | -2.98 ± 0.29
43 | CCGCAGCAAUAUUACGACAA | -3.68 ± 0.23 | -2.21 ± 0.24
44 | CCGCAGCAAUAUUACGACAC | -2.84 ± 0.28 | -2.71 ± 0.38
45 | CCGCAGCAAUAUUACGACAU | -3.899 ± 0.024 | -2.94 ± 0.039
46 | CCGCAGCAAUAUUACGAGAU | -4.09 ± 0.42 | -2.2 ± 0.19
47 | CCGCAGCAAUAUUACGAUAU | -4.2 ± 0.23 | -2.76 ± 0.17
48 | CCGCAGCAAUAUUACGCAUU | -3.28 ± 0.2 | -3.44 ± 0.19
